Laboratory results reported in patent US20200325218A1 (Novartis, published 2020).

T1: recombinant mouse TSLP (mouse, UniProt Q9JIE6 20-140)
T1 construct: Bought from R&D Systems (MW 15 kDa); also called mTSLP; murine TSLP
T1 sequence: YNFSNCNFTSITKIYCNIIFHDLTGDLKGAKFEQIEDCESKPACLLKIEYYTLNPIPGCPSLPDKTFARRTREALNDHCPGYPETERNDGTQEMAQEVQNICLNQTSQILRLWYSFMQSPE

T2: recombinant cynomolgus monkey TSLP (cynomolgus monkey, UniProt Q969D9 29-159 (human entry), limits assumed)
T2 chain: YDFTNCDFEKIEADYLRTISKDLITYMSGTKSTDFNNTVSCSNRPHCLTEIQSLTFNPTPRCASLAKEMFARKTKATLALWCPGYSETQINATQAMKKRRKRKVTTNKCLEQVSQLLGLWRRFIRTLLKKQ


What was measured:
recombinant mouse TSLP = target: T1, recombinant mouse TSLP; assay: Biacore SPR, Fab1 captured on a human Fab binder CM5 chip, TSLP injected
Experimental: Human Fab binder was immobilized on all four flow cells of a CM5 chip using a Human Fab Capture kit following manufacturer's instructions. A contact time of 360 seconds at a flow rate of 10 uL/min was specified. The temperature of the sample compartment was 10° C. and analysis temperature was 25° C.; prior to immobilization, the CM5 chip was primed with HBS-EP+ and normalized with BIAnormalizing solution. 375 uL of 20 ug/mL human Fab binder was prepared by combining 15 uL 0.5 mg/mL stock with 360 uL pH5 immobilization buffer (both provided in Human Fab Capture kit).
The temperature of the sample compartment was 10° C. and analysis temperature was 25° C. […] Regeneration of the Fab binder surface was achieved after each cycle by injecting 10 mM glycine-HCl, pH 2.0 for 60 s at 10 uL/min, followed by an extra wash with HBS-EP+ buffer. The temperature of the sample compartment was 10° C. and analysis temperature was 25° C.

[1] = target: naturally-secreted human TSLP (human, UniProt Q969D9 29-159); assay: cell-based or functional assay
[2] = target: T2, recombinant cynomolgus monkey TSLP; assay: cell-based or functional assay
recombinant human TSLP [3] = target: T3, recombinant human TSLP (human, UniProt Q969D9 29-159); assay: cell-based or functional assay
[4] = target: T2, recombinant cynomolgus monkey TSLP; assay: solution equilibrium titration (SET), antigen titrated in solution, free Fab read on an E. coli hsTSLP-coated MSD plate, mean of 3 experiments ± SD
Experimental: (§1) The Fab was incubated at a constant concentration with serial dilutions of the respective antigens. The binding affinity was extracted from a competition curve which was generated by plotting the read-out of the concentration of unbound antibody against the applied antigen concentration.
(§2) A 384-well MSD array MTP was coated o/n at 4° C. with 30 μl/well of hsTSLP (produced in E. coli) diluted in PBS at 5 μg/ml, then washed three times with 70 μl/well of wash buffer and blocked with 50 μl/well of blocking buffer for 1 h at RT on a shaker. After washing, a volume of 30 μl/well of the equilibrated antigen-Fab mix was transferred from the polypropylene MTP to the coated MSD plate and incubated for 20 min at RT.

human TSLP (HEK) = target: T4, human TSLP (HEK) (human, UniProt Q969D9 29-159); assay: as above
T4 construct: also called human TSLP (produced in HEK cells)
Experimental: as §1, §2

recombinant human TSLP [5] = target: T3, recombinant human TSLP; assay: solution equilibrium titration (SET), MSD electrochemiluminescence
Experimental: as §1, §2

[6] = target: T5, His6-PreSc-TSLP (recombinant human TSLP used in crystallography) (human); assay: complex purified by size-exclusion chromatography and solved by X-ray crystallography
T5 construct: also called TSLP (chain T)
T5 sequence (chain, as listed by the source limits assumed): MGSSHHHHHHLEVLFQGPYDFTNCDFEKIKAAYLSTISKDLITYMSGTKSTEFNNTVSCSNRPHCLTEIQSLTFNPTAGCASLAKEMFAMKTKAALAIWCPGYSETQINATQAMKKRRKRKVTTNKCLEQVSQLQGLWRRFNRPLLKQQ
Experimental: The peak fraction was concentrated to 9.2 mg/ml by ultrafiltration and submitted to crystallization screening.

| IC50, luciferase reporter gene assay (Ba/F3 cells with hTSLPR, hIL7Rα and Stat5-luciferase) [1] [nM] | IC50, TSLP-induced MDC secretion from cyno PBMC [2] [nM] | IC50, TSLP-induced TARC secretion from human PBMC [2] [nM] | IC50, luciferase reporter gene assay (Ba/F3 cells with hTSLPR, hIL7Rα and Stat5-luciferase) [2] [nM] | mean IC50 (n=3), TSLP-induced MDC secretion from cyno PBMC [2] [nM] | mean IC50 (n=3), TSLP-induced TARC secretion from human PBMC [2] [nM] | mean IC50 (n=3), luciferase reporter gene assay [2] [nM] | IC50, TSLP-induced TARC secretion from human PBMC (recombinant human TSLP [3]) [nM] | IC50, luciferase reporter gene assay (Ba/F3 cells with hTSLPR, hIL7Rα and Stat5-luciferase) (recombinant human TSLP [3]) [nM] | mean IC50 (n=3), TSLP-induced TARC secretion from human PBMC (recombinant human TSLP [3]) [nM] | mean IC50 (n=3), luciferase reporter gene assay (recombinant human TSLP [3]) [nM] | Kd [4] [nM] | Kd (human TSLP (HEK)) [nM] | Kd (recombinant human TSLP [5]) [nM] | binding result [6] | Binder | binding result (recombinant mouse TSLP) |
| --- | --- | --- | --- | --- | --- | --- | --- | --- | --- | --- | --- | --- | --- | --- | --- | --- |
| 0.0171 | 0.0555 | 0.0113 | 0.0108 | 0.0251 | 0.0111 | 0.0095 | 0.0203 | 0.0154 | 0.0197 | 0.0153 | 0.0014 | 0.005 | 0.006 |  | anti-TSLP Fab1 (Fab, V domains shown, also called anti-human TSLP Fab1; Fab fragment of MOR014824 (Mab1)) VH: EVQLVESGGGLVKPGGSLRLSCAASGFTFSDYWMHWVRQAPGKGLEWVGHIKSKTDAGTTDYAAPVKGRFTISRDDSKNTLYLQMNSLKTEDTAVYYCAREIYYYAFDSWGQGTLVTVSS VL: SYELTQPLSVSVALGQTARITCSGDNIGSKYVHWYQQKPGQAPVLVIYGDNERPSGIPERFSGSNSGNTATLTISRAQAGDEADYYCQAADWVDFYVFGGGTKLTVLG | no binding (tested: 10 nM highest antigen concentration) |
|  |  |  |  |  |  |  |  |  |  |  |  |  |  | binds | anti-TSLP Fab1 generated by papain digestion of anti-TSLP mAb1 (crystallography sample) (Fab, V domains shown, pyroglutamic acid residue at the amino-terminus, also called the Fab) VH: EVQLVESGGGLVKPGGSLRLSCAASGFTFSDYWMHWVRQAPGKGLEWVGHIKSKTDAGTTDYAAPVKGRFTISRDDSKNTLYLQMNSLKTEDTAVYYCAREIYYYAFDSWGQGTLVTVSS VL: SYELTQPLSVSVALGQTARITCSGDNIGSKYVHWYQQKPGQAPVLVIYGDNERPSGIPERFSGSNSGNTATLTISRAQAGDEADYYCQAADWVDFYVFGGGTKLTVLG |  |
